In one data set the target is vvZαE3L (UniProt P21605). The data set is described as follows: MST; 20 mM NaCl; text says 20 uM; MST at 22 C, 5 nM labeled DNA, 0.5 mg/ml BSA, 0.05% Tween 20; 5 mM HEPES pH 7.5, 20 mM NaCl (Table 2); 20 mM HEPES pH 8.0, 100 mM NaCl (Table 4); 20 mM Tris-HCl pH 7.8, 150 mM KCl (Table 5). The settings on record: protein: recombinant; label: 5'-Alexa647 on strand 1; blunt.

A further data set has as its target T1, GH5* (UniProt P02259, K41G;S42G;R43G;K53A;R95A).
T1 sequence: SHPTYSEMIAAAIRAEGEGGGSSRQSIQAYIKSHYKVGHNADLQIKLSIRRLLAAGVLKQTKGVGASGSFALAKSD
Put plainly: MST; 150 mM KCl, pH 7.8; MST at 22 C, 5 nM labeled DNA, 0.5 mg/ml BSA, 0.05% Tween 20; 5 mM HEPES pH 7.5, 20 mM NaCl (Table 2); 20 mM HEPES pH 8.0, 100 mM NaCl (Table 4); 20 mM Tris-HCl pH 7.8, 150 mM KCl (Table 5). As to conditions: protein: recombinant; label: 5'-Alexa647 on strand 1; blunt.

Data set [1] addresses T2, GH5*:α3NADAR1-PW (/ human ADAR1 α3N and β-wing residues, UniProt P02259, K41G;S42G;R43G;K53A;R95A;del65;D66K;L67K;Q68E;K70N;L71R;S72V;I73L;R74Y;R75S;S91P …).
T2 sequence: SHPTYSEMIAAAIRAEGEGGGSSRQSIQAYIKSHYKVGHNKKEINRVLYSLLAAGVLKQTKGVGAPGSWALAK
Described as above. As to conditions: protein: recombinant; chain copies: 2; label: 5'-Alexa647 on strand 1; blunt.

The target in another data set is T3, hZαADAR1 (human, UniProt P55265).
T3 sequence: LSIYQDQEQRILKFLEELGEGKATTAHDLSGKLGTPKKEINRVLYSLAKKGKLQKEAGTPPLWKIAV
Put plainly: MST; 20 mM NaCl; text says 1.8 uM; MST at 22 C, 5 nM labeled DNA, 0.5 mg/ml BSA, 0.05% Tween 20; 5 mM HEPES pH 7.5, 20 mM NaCl (Table 2); 20 mM HEPES pH 8.0, 100 mM NaCl (Table 4); 20 mM Tris-HCl pH 7.8, 150 mM KCl (Table 5). As to conditions: protein: recombinant; tags: N-terminal His6, cleaved by thrombin; chain copies: 2; label: 5'-Alexa647 on strand 1; blunt.

Data set [2] has as its target T2, GH5*:α3NADAR1-PW. Put plainly: MST; 100 mM NaCl, pH 8.0; MST at 22 C, 5 nM labeled DNA, 0.5 mg/ml BSA, 0.05% Tween 20; 5 mM HEPES pH 7.5, 20 mM NaCl (Table 2); 20 mM HEPES pH 8.0, 100 mM NaCl (Table 4); 20 mM Tris-HCl pH 7.8, 150 mM KCl (Table 5). As to conditions: protein: recombinant; chain copies: 2; label: 5'-Alexa647 on strand 1; blunt.

B1: B-DNA 21 bp (dsDNA)
DNA 1: TATGCAATCGTAATAAACCGT
DNA 2: ACGGTTTATTACGATTGCATA
The Kd is the constant that tells how readily two partners part at equilibrium. For B1, the Kd in the data set with vvZαE3L stood at 21 ± 0.5 µM; with GH5*, 167 ± 50 µM; in the data set with GH5*:α3NADAR1-PW [1], 144 ± 16 µM; with hZαADAR1 it was 2.7 ± 0.5 µM; with GH5*:α3NADAR1-PW [2] it was 31 ± 2 µM.
